Assay results: patent US20220073963A1, “COMPOSITIONS AND METHODS FOR DETECTING AND TREATING TYPE 1 DIABETES AND OTHER AUTOIMMUNE DISEASES” (THE JOHNS HOPKINS UNIVERSITY, priority 2018, published 2022)
No end group written: not given here.

Columns and labels:
[1] = system: HLA-DQ8 monomers; test: Gentle SDS-PAGE assay of peptide binding to DQ8; design: species or system human; conditions: 100 μM peptide, 0.5 μM HLA-DQ8 monomers, 37° C., 72 h, pH 5.5
Protocol: Analysis of x-Id peptide binding to DQ8 using gentle SDS-PAGE assay. Gentle SDS-PAGE was used to assess formation of stable complexes between peptides and HLA-DQ8 molecules as previously described (Kim et al., 2013; Sadegh-Nasseri and Germain, 1991). Briefly, 0.5 μM of HLA-DQ8 monomers (provided by NIH tetramer core facility) were treated with thrombin to cleave and remove CLIP peptide. […] Reactions were neutralized, mixed with equal volumes of SDS-PAGE sample buffer containing 0.1% SDS (final concentration) and placed for 15 min at room temperature and run on 10% PAGE gels and silver-stained using a standard protocol.

[2] = system: CD4 T cells; test: CFSE proliferation assay with immobilized peptide-loaded DQ8 complexes; type: cell-based, human; conditions: PBMCs from DQ8+ T1D subjects, 7 days
Protocol: CFSE proliferation assay. Freshly isolated PBMCs were washed twice with warm (37° C.) 1×PBS to remove serum that affect staining and the cells were resuspended in warm (37° C.) 1×PBS at a density of 1.5-2.0×10^6 cells/ml. Cells were labeled with 1 μM CFSE (eBioscience) for 1-2 min at 37° C. with continuous vortexing. The labeling reaction was quenched by adding chilled complete culture media. CFSE-labeled cells were washed in 1×PBS, resuspended in complete media, and plated into 24-well tissue culture plates (1.5-2.0×10^6 cells/well in 1 mL complete culture medium). […] Alternatively, in a separate experiment, to evaluate the mAb-specific proliferative response, purified mAbR and mAbN (described later in the method) concentration of 2.5 and 5 ug, immobilized into the wells of 24-well plates, and used to stimulate CFSE-labeled PBMCs. CFSE labelled cells without stimulation and with CD3-28 stimulation were taken as specific negative and positive controls respectively. After 7 days of incubation, cultures were stained as indicated in FIG. legends and proliferation assessed by determining frequency of CFSElow CD4 T cells.

[3] = system: CD4 T cells; test: CFSE proliferation assay with soluble peptides; type: cell-based, human; conditions: soluble peptide, PBMCs from T1D and HC subjects, 7 days
Protocol: FIG. 14A-14B. […] Freshly isolated CFSE-labelled PBMCs from T1D and HC subjects were cultured in the presence or absence of indicated peptides for 7 days. Samples were stained, acquired and analyzed by FlowJo. CD4 T cells were gated and percentage of divided (CFSElow T cells) were determined. […] All peptides induced significant proliferation from diabetogenic subjects compared to HCs. n=4 per subject group, *p<0.05 by Two-way ANOVA with Sidak's multiple comparisons test. […] (FIG. 14B) Overlays show upregulation of CD69 by gated CFSElow T cells (red lines) versus […] non-proliferating (green) CD4 T cells from three subjects and three independent experiments. Numbers indicate percentages (Mean±SEM) of CFSElow CD4 T cells. CFSE proliferation assay. Freshly isolated PBMCs were washed twice with warm (37° C.) 1×PBS to remove serum that affect staining and the cells were resuspended in warm (37° C.) 1×PBS at a density of 1.5-2.0×10^6 cells/ml. Cells were labeled with 1 μM CFSE (eBioscience) for 1-2 min at 37° C. with continuous vortexing. The labeling reaction was quenched by adding chilled complete culture media. […] After 7 days of incubation, cultures were stained as indicated in FIG. legends and proliferation assessed by determining frequency of CFSElow CD4 T cells.

[4] = Wang et al., 2018; cited from earlier work
[5] = target: CD4 T cells from T1D subjects (antigen receptors not identified); test: flow cytometry, tetramer staining of CD4 T cells; unstimulated cultures
[6] = target: CD4 T cells from T1D subjects (antigen receptors not identified); test: flow cytometry, tetramer staining of CD4 T cells; x-Id-stimulated cultures, NO AB
[7] = target: CD4 T cells from T1D subjects (antigen receptors not identified); test: flow cytometry, tetramer staining of CD4 T cells; mimotope-stimulated cultures, NO AB
[8] = target: CD4 T cells from T1D subjects (antigen receptors not identified); test: flow cytometry, tetramer staining of CD4 T cells; x-Id-stimulated cultures, AB BLOCKADE (cells preincubated with x-mAbR)
[9] = target: CD4 T cells from T1D subjects (antigen receptors not identified); test: flow cytometry, tetramer staining of CD4 T cells; mimotope-stimulated cultures, AB BLOCKADE (cells preincubated with x-mAbR)

Molecule: CARQRFWSGPLFDYW [h-Id, CDR3 peptide of the IGVH04-b+ IgD+ clonotype from HC #1]
- formation of SDS-stable complexes with soluble DQ8 [1]: did not form detectable DQ8 complexes
- stimulation of CD4 T cells (CFSE proliferation and CD69 upregulation) [2]: no significant responses
- proliferation of CD4 T cells (CFSElow) [3]: did not elicit proliferation of CD4 T cells from either T1D or HCs

Molecule: SHLVEELYLVAGEEG (listed as Homo sapiens) [superagonist]
- potency relative to native insulin B:9-23 [4]: about 1000 fold

Molecule: SHLVEALYLVCGERG (listed as Homo sapiens) [native insulin]
- formation of SDS-stable complexes with soluble DQ8 [1]: did not form detectable DQ8 complexes
- stimulation of CD4 T cells (CFSE proliferation and CD69 upregulation) [2]: no significant responses

Molecule: TP-Id: truncated version of x-Id that lacked cysteine and tryptophan at the terminals (ARQEDTAMVYYFDY)
- formation of SDS-stable complexes with soluble DQ8 [1]: forming SDS-stable complexes

Molecule: CLIP-TET (peptide-MHC)
- tetramer+ among CD4 T cells [5]: 0.07%
- tetramer+ among CD4 T cells [6]: 0.1%
- tetramer+ among CD4 T cells [7]: 0.09%
- tetramer+ among CD4 T cells [8]: 0.08%
- tetramer+ among CD4 T cells [9]: 0.08%

Molecule: CARQEDTAMVYYFDYW (listed as Homo sapiens) [x-Id]
- formation of SDS-stable complexes with soluble DQ8 [1]: forming SDS-stable complexes
- proliferation of CD4 T cells (CFSElow) [3]: stimulates CD4 T cells from T1D, but not HC, subjects

Molecule: CARQEDTAMVYYFDYW (peptide-MHC, part only; not given: HLA-DQ8 alpha and beta chains, human, part only, also: loaded in biotinylated HLA-DQ8 monomers tetramerized with PE-streptavidin) [HLA-DQ8 tetramer loaded with x-Id peptide]
- tetramer+ among CD4 T cells [5]: 0.56%
- tetramer+ among CD4 T cells [6]: 1.03%
- tetramer+ among CD4 T cells [7]: 1.07%
- tetramer+ among CD4 T cells [8]: 0.35%
- tetramer+ among CD4 T cells [9]: 0.36%
